Laboratory results reported in publication PMC9867570 (Science (New York, N.Y.), 2022).

B1: Nup145N^R1 (residues 616–683) (peptide, UniProt G0SAK3 616-683, looked up)
chain: ATPLSGKAKVKSRSILPMYKLSPANASRLVTTPQKRAYGFSFSAYGSPTSPSSSASSTPGAFGQSILS
B2: Chaetomium thermophilum Nup145N (natural protein, UniProt G0SAK3 1-993, looked up)
chain: MSFGFGSGGFGQNNNSSTFGGFGSTPTTNTGFGSTGTTAFGSTSNTTGGGLFGGGGGGFGSGNTFGSGFGSKPAFGTPATTSSTSLFGSTTTTAGGTGFGSGGFGSTNTSSPFGGGGTSLFGNKTTTGFGSGTSTFGSNTGGGLFGGGSTTTGFGATNNPGIGTNVGDPPGTAVVPFSPTVEKEVNNPSQSNSYQNILFMDAYKKWSAEELRLADYNQGRKTAAPGGTGAFGSSGFGGFGTTSNTGGFGSNTGGGLFGNTQQNTGGFGTTNTTGSAFGSGGGLFGNKPATGGLFGTSSSQPAQSGGLFGSGTASTFGSSNTGTTSTFGSNNNTGGGLFGSNNTSSKPAFSFGTSNTSTPGFGTATTGSGFGTGTTTNTGGGLFGNTAQNTNTGGGLFGNQQQSGSAFGSGTGFGQQNQSTGTSLFGNTQQKPGGLFGSTTTNTSGGLFGSTNTGTSTFGQTPATQNTGGGLFGSKPAGTGGLFGSTATNQPASTGGLFGNLNTNAQTQQPATGGLFGNLGQNNQAKPSLFGTSTTTGGGLFGNTNAQQQTGSLFGTSTAQQQPQTGLGASLFGSSQQQQQQPQTFSTSITDISAYGATTLFSGLPDDKIQNPGPLATPLSGKAKVKSRSILPMYKLSPANASRLVTTPQKRAYGFSFSAYGSPTSPSSSASSTPGAFGQSILSSSINRGLNKSISASNLRRSLNVEDSILQPGAFSANSSMRLLGGPGSHKKLVINKDMRTDLFSPPNKDKQPQEDGTAARKTVTKRVSFDTSNVETPEKTIESSIPATDDSGYLKPDARSTANGTNGANGAKSSPVAAASPPEMEQVKGKELAVVHEEESPAPAQTDKPRGSQIEPGAYWMSPTADDIRAMNRMQRQRVVGFTVGRENVGSVQFKVPVDLSNINLDDLFGTIVILEPRSATVYPNAAKKPPMGKGLNVPALISLEHSWPRGGPTIKGRRLERHIERLKSIPDTTFESYDPETGVWAFSVEHF
B3: Nic96^187–301 (domain or fragment, Chaetomium thermophilum, UniProt G0S024 187-301, looked up)
chain: EPGKAHYFLAASGVDPGAAVRDLGALGLQAKTERTAASVGPAAGPSGVSTTGFGTGLGEVDVDTYLSNLQTKTTLSMIADGLERSARDFDAFLEENVTLEWEAQRKRIYQHFGIK
B4: SUMO-NUP53^N (residues 1–169) (domain or fragment, human, UniProt Q8NFH5 1-169, looked up)
chain: MAAFAVEPQGPALGSEPMMLGSPTSPKPGVNAQFLPGFLMGDLPAPVTPQPRSISGPSVGVMEMRSPLLAGGSPPQPVVPAHKDKSGAPPVRSIYDDISSPGLGSTPLTSRRQPNISVMQSPLVGVTSTPGTGQSMFSPASIGQPRKTTLSPAQLDPFYTQGDSLTSED
B5: Nic96^R2 (residues 240–301) (peptide, UniProt G0S024 240-301, looked up)
chain: GTGLGEVDVDTYLSNLQTKTTLSMIADGLERSARDFDAFLEENVTLEWEAQRKRIYQHFGIK
B6: human NUP53^R2 (residues 84–150) (peptide, UniProt Q8NFH5 84-150, looked up)
chain: DKSGAPPVRSIYDDISSPGLGSTPLTSRRQPNISVMQSPLVGVTSTPGTGQSMFSPASIGQPRKTTL

Columns and labels:
[1] = target: Chaetomium thermophilum Nup192, full-length (Chaetomium thermophilum, UniProt G0S4T0 1-1756); test: ITC
[2] = target: Chaetomium thermophilum Nup188, full-length (Chaetomium thermophilum, UniProt G0SFH5 1-1858); test: ITC
human NUP93^SOL = target: T1, human NUP93^SOL (human, UniProt Q8N1F7 174-819); test: SEC
T1 sequence: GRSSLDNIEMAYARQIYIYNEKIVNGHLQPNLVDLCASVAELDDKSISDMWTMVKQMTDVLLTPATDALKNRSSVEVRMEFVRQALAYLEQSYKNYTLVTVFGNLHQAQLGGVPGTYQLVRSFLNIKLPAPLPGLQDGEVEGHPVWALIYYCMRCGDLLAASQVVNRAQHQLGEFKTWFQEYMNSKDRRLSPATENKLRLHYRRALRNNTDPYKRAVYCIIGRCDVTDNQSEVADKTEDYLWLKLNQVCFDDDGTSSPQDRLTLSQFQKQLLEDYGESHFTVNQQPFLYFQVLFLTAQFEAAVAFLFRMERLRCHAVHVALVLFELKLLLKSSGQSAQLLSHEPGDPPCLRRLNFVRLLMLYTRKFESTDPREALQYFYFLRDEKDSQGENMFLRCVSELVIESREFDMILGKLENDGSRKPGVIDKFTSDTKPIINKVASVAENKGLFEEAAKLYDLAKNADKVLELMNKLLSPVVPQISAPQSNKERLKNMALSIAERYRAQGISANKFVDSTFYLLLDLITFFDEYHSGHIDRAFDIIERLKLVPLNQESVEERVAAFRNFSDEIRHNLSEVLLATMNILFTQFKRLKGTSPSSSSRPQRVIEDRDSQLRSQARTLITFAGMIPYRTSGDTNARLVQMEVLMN

Chain of Chaetomium thermophilum Nup192, full-length (G0S4T0 whole entry): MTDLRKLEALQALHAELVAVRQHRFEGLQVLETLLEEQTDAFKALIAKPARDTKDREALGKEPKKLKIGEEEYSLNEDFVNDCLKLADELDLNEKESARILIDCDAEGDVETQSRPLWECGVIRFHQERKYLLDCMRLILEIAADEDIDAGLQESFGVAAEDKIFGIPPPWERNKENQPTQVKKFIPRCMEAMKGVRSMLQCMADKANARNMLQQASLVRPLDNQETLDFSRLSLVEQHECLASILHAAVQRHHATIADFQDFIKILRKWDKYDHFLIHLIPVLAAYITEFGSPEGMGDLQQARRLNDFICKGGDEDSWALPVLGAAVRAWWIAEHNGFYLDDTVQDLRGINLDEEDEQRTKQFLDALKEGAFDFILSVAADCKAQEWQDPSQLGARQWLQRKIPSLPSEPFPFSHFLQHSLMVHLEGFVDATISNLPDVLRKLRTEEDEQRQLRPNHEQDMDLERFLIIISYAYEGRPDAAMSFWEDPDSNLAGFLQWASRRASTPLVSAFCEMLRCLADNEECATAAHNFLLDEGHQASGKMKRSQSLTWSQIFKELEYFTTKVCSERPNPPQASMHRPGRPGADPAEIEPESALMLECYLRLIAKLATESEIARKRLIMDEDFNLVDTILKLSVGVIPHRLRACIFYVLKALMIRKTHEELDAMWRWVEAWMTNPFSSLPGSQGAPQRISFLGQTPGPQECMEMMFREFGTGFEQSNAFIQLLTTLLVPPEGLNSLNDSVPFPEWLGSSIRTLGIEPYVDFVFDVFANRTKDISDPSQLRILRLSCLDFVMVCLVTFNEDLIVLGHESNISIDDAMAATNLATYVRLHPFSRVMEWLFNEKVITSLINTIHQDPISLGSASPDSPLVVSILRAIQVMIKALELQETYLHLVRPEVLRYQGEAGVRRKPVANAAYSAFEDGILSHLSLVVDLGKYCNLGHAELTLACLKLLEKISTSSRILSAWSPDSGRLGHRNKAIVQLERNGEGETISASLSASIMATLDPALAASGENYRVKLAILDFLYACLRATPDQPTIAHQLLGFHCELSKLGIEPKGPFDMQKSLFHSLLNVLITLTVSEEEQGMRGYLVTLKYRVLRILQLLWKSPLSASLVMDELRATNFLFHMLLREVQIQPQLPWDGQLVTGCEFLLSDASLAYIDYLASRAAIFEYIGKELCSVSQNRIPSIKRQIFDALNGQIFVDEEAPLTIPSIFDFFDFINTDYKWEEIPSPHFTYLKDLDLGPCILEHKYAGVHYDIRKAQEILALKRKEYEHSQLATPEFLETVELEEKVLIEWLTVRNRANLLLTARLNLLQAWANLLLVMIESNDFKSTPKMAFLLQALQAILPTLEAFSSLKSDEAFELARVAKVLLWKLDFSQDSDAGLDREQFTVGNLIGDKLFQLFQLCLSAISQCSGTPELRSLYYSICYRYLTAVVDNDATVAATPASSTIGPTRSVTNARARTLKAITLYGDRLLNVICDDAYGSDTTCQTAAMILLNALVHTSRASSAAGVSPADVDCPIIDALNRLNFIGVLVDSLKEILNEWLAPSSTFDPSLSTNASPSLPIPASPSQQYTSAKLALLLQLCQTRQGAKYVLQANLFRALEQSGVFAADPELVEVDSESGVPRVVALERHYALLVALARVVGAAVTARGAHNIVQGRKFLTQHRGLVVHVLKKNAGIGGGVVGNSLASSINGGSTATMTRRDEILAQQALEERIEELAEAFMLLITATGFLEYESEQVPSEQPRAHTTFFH
Chain of Chaetomium thermophilum Nup188, full-length (G0SFH5 whole entry): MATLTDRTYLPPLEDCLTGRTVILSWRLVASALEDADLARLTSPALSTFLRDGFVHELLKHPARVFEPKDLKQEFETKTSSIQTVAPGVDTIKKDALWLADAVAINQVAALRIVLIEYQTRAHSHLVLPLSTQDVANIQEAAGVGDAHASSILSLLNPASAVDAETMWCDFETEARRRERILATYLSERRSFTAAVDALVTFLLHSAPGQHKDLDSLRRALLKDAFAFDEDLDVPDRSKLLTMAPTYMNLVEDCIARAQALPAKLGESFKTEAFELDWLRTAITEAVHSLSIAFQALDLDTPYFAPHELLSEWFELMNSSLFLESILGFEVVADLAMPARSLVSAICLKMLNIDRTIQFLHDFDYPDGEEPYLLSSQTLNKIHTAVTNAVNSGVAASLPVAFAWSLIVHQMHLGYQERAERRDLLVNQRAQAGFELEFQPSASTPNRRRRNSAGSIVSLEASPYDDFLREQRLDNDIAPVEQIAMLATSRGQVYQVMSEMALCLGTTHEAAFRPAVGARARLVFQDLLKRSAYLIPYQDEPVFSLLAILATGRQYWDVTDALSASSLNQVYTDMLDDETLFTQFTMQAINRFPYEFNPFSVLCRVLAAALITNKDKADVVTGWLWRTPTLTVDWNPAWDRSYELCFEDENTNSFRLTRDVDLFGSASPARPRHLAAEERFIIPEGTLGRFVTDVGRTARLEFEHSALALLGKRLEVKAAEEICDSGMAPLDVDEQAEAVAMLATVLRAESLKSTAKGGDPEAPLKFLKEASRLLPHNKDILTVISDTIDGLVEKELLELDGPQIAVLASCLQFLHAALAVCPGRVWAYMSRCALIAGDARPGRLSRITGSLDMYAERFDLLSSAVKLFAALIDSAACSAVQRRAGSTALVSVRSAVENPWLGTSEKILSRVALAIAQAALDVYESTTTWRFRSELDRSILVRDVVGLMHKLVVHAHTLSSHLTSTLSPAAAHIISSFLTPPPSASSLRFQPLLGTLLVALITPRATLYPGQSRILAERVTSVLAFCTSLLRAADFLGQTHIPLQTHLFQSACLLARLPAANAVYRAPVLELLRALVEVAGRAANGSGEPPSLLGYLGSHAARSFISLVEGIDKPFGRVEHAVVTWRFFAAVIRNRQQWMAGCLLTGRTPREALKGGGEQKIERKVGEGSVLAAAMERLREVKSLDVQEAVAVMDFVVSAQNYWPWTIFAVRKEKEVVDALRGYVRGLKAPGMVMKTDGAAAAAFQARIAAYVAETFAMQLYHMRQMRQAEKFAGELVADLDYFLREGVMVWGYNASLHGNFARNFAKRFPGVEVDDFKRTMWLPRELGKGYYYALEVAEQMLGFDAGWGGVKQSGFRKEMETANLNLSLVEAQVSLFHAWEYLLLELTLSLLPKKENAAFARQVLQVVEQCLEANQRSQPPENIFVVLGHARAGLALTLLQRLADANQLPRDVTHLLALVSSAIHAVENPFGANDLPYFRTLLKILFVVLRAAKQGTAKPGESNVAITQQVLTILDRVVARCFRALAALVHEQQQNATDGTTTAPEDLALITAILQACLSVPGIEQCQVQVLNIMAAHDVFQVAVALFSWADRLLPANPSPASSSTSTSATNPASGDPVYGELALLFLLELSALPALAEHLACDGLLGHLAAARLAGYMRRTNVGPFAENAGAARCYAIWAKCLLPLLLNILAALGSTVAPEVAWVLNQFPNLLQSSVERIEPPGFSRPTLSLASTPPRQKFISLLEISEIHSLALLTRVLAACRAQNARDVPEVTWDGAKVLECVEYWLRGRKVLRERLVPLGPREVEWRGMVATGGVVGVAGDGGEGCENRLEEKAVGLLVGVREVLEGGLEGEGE

Binder | Kd [1] [µM] | Kd [2] [µM] | binding result (human NUP93^SOL)
B1 | ~1.6 | – | –
B2 | ~0.825 | – | –
B3 | ~0.075 | ~0.09 | –
B4 | – | – | binds
B5 | ~0.075 | ~0.09 | –
B6 | – | – | binds
